Assay results: US20110059504A1

T1: human myostatin (human) (UniProt O14793)
T1 sequence (biotinylated in selections and radioactive assays (site not stated), looked up): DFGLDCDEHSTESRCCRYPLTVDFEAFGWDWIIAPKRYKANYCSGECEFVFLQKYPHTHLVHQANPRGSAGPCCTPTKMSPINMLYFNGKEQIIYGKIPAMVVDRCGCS


Columns and labels:
[1] = biological target: T1, human myostatin (human); assay: cell-based or functional assay
[2] = biological target: T1, human myostatin (human)

Row | Binder | MPC-11 cell proliferation assay, IC50 [1] [nM] | EC50 (read off the curve); blocking of myostatin-induced inhibition of MPC-11 proliferation [2] [nM]
1 | M07, E. coli-produced (designed binder) MTIPEIIIKVRGTQVVGSDMTVIVEFTNPFKETLRSVWVHLDGPGVTRPMKKMFREIPPKTTVQWEEVVRPWVSGHRKLIARCQLLPWHVYGELDVQIQRRHHHHHH | 150 to 200 | 
2 | M3-1, E. coli-produced (designed binder) MTIPEIIIKVRGTQVVGSDMTVIVEFTNPLKETLRNVWVHLDGPGVTRPMKKMFRAIPMNHKVQWEEVVRPWVSGHRKLIASMPQLFHIHVYGELDVQIQRRHHHHHH |  | 30

Other lines, results leading:

Row | MPC-11 cell proliferation assay, IC50 [1] [nM] | EC50 (read off the curve); blocking of myostatin-induced inhibition of MPC-11 proliferation [2] [nM] | Binder
3 | 150 to 200 |  | M56, E. coli-produced (designed binder) MTIPEIIIKVRGTQVVGSDMTVIVEFSNPFKETLRNVWVHLDGPGVTRPMKKMFSEIRPNSTVQWEEVVRPWVSGHRKLIARCSLSPWHVYGELDVQIQRRHHHHHH
4 | 150 to 200 |  | M71, E. coli-produced (designed binder) MTIPEIIIKVRGTQVVGSDMTVIVEFTNPFKETLRSVWVHLDGPGVTRPMKKMFSEIRPNSTVQWEEVVRPWVSGHRKLIARCSLSPWHVYGELDVQIQRRHHHHHH
